Reference: US8871909B2, “Antibodies inhibiting c-Met dimerization and uses thereof” (Pierre Fabre Medicament, priority 2007, dated 2014)

B1: 224G11: murine anti-c-Met monoclonal antibody, IgG1 kappa; heavy chain SEQ ID No. 18, light chain SEQ ID No. 21 (antibody, V domains shown)
VH: EVQLQQSGPELVKPGASVKISCKTSGYIFTAYTMHWVRQSLGESLDWIGGIKPNNGLANYNQKFKGKATLTVDKSSSTAYMDLRSLTSEDSAVYYCARSEITTEFDYWGQGTALTVSS
VL: DIVLTQSPASLAVSLGQRATISCRASESVDSYANSFMHWYQQKPGQPPKLLIYRASNLESGIPARFSGSGSRTDFTLTINPVEADDVATYYCQQSKEDPLTFGSGTKLEMK
modifications: mus musculus
B2: 11E1: murine anti-c-Met monoclonal antibody, IgG1 kappa; heavy chain SEQ ID No. 62, light chain SEQ ID No. 63 (antibody, V domains shown)
VH: QVQLQQSGAELAKPGASVKMSCKASGYTFTSYWMNWVKQRPGQGLEWIGYINPTTGSTDYNQKLKDKATLTADKSSNTAYMQLSSLTSEDSAVYYCAIGGYGSWFAYWGQGTLVTVSA
VL: QIVLTQSPAIMSASPGEKVTLTCSASSSVSSTYLYWYQQKPGSSPKLWIYTTSILASGVPARFSGSGSGTSYSLTISSMETEDAASYFCHQWSSYPFTFGSGTKLDIK
modifications: mus musculus
B3: 223C4: murine anti-c-Met monoclonal antibody, IgG1 kappa; heavy chain SEQ ID No. 20, light chain SEQ ID No. 23 (antibody, V domains shown)
VH: EVLLQQSGPELVKPGASVKIPCKASGYTFTDYNMDWVKQSHGMSLEWIGDINPNNGGTIFNQKFKGKATLTVDKSSSTAYMELRSLTSEDTAVYYCARGRYVGYYYAMDYWGQGTSVTVSS
VL: DIQMTQSPASLSVSVGETVTITCRASENIYSNLAWYQQKQGKSPQLLVYAATNLVDGVPSRFSGSGSGTQYSLKINSLQSEDFGSYYCQHFWGPPYTFGGGTKLEIK
modifications: mus musculus

Assays:
Assay type in all cases: cell-based
c-Met = experiment: BRET analysis of c-Met dimerization on c-Met transfected CHO cells; conditions: CHO cells expressing C-Met-Rluc and C-Met-K1100A-YFP, supernatants
Excerpt: The technology BRET, used in the step iii) of the process, is well known by the person skill in the art and will be detailed in the following examples. More particularly, BRET (Bioluminescence Resonance Energy Transfer) is a non-radiative energy transfer occurring between a bioluminescent donor (Renilla Luciferase (Rluc)) and a fluorescent acceptor, a mutant of GFP (Green Fluorescent Protein) or YFP (Yellow fluorescent protein). In the present case EYFP (Enhanced Yellow Fluorescent Protein) was used. The efficacy of transfer depends on the orientation and the distance between the donor and the acceptor. Then, the energy transfer can occur only if the two molecules are in close proximity (1-10 nm). This property is used to generate protein-protein interaction assays. Indeed, in order to study the interaction between two partners, the first one is genetically fused to the Renilla Luciferase and the second one to the yellow mutant of the GFP. Fusion proteins are generally, but not obligatory, expressed in mammalian cells. In presence of its membrane permeable substrate (coelenterazine), Rluc emits blue light. If the GFP mutant is closer than 10 nm from the Rluc, an energy transfer can occur and an additional yellow signal can be detected. The BRET signal is measured as the ratio between the light emitted by the acceptor and the light emitted by the donor. So the BRET signal will increase as the two fusion proteins are brought into proximity or if a conformational change bring Rluc and GFP mutant closer.
Then antibodies inhibiting at least 50% cell proliferation were evaluated as supernatants by BRET analysis on c-Met transfected cells. For that purpose, CHO stable cell lines expressing C-Met-Rluc or C-Met-Rluc and C-Met-K1100A-YFP were generated. Cells were distributed in white 96 well microplates in DMEM-F12/FBS 5% culture medium one or two days before BRET experiments. Cells were first cultured at 37° C. with CO2 5% in order to allow cell attachment to the plate. Cells were then starved with 200 μl DMEM/well overnight. Immediately prior to the experiment, DMEM was removed and cells quickly washed with PBS. Cells were incubated in PBS in the presence or absence of antibodies to be tested or reference compounds, 10 min at 37° C. prior to the addition of coelenterazine with or without HGF in a final volume of 50 μl. […]
BRET ratio has been defined previously [Angers et al., Proc. Natl. Acad. Sci. USA, 2000, 97:3684-3689] as: [(emission at 530 nm)−(emission at 485 nm)×Cf]/(emission at 485 nm), where Cf corresponds to (emission at 530 nm)/(emission at 485 nm) for cells expressing Rluc fusion protein alone in the same experimental conditions. […] For the sake of readability, results are expressed in milliBRET units (mBU); mBU corresponds to the BRET ratio multiplied by 1000.

[1] = system: U-87MG, human glioblastoma cells; experiment: U87-MG spheroid growth; conditions: antibody 10 μg/ml
Procedure: To evaluate the ability of anti-c-Met antibodies to inhibit in vitro tumor growth, in a model closer to an in vivo situation, U-87MG, human glioblastoma cells (ATCC #HTB-14) spheroids were generated. Cells grown as a monolayer were detached with trypsine-EDTA and resuspended into complete cell culture media (DMEM) supplemented with 10% FBS. Spheroids were initiated by inoculating 625 cells into single wells of round bottom, 96 plates in DMEM-10% FCS. To prohibit cell adhesion to a substratum, the plates were pre-coated with polyHEMA in 95% ethanol and air dried at room temperature. The plates were incubated under standard cell culture conditions at 37° C., 5% CO2 in humidified incubators. Purified monoclonal antibodies (10 μg/ml) were added after 3 and 7 days of spheroid culture. HGF (400 ng/ml) was added once after 4 days of culture. Spheroids were kept in culture for at least 10 days. Then, spheroid growth was monitored by measuring the area of spheroids using automeasure module of axiovision software. Area was expressed in μm^2. 8-16 spheroids were evaluated for each condition.
As already described in Example 9 for other Mabs, we evaluate the ability of 224G11 Mab to inhibit in vitro tumor growth in the U87-MG spheroid model. For that purpose, U87-MG cells grown as a monolayer were detached with trypsine-EDTA and resuspended into complete cell culture media. Spheroids were initiated by inoculating 625 cells into single wells of round bottom, 96 plates in DMEM-2.5% FCS. To prohibit cell adhesion to a substratum, the plates were pre-coated with polyHEMA in 95% ethanol and air dried at room temperature. The plates were incubated under standard cell culture conditions at 37° C., 5% CO2 in humidified incubators. Purified monoclonal antibodies (10 μg/ml) were added after 4 and 10 days of spheroid culture. Spheroids were kept in culture for 17 days. Then, spheroid growth was monitored by measuring the area of spheroids using automeasure module of axiovision software. Area was expressed in μm^2. 8-16 spheroids were evaluated for each condition. Spheroid size was measured before addition of antibodies, after 10 days of culture and after 17 days of culture.

A549 cells = experiment: Matrigel invasion assay with A549 cells; conditions: A549, Mab 10 μg/ml, basal (no HGF)
Procedure: To evaluate the inhibiting effect of the anti-c-Met antibodies on the invasion process, A549 cells were plated in the upper chamber of BD BioCoat™ Matrigel™ invasion chambers (6.5 mm diameter wells with 8-μm pre size polycarbonate membranes). A459 cells were starved 24 hours before performing the invasion assay. Then 500 000 A549 cells were plated in chemotaxis buffer (DMEM medium, 0.1% BSA, 12 mM Hepes) in the upper well of each chamber, upon the Matrigel coating either with or without the antibody to be tested (final Mab concentration 10 μg/ml). After 1 hour incubation of the plates at 37° C. with 5% CO2, the lower chambers were filled with either growth medium containing 400 ng/ml of rhHGF or with growth medium alone. The chambers were incubated for 48 additional hours at 37° C. with 5% CO2. At the end of this incubation time, cells that remained on upper surface of the filter were gently removed with a cotton swab, cells that migrated to the lower surface of the filter were lysed, stained with CyQuant GR dye buffer (Invitrogen) and counted using a fluorescence reader Berthold Mithras LB940. All conditions were tested as triplicates.

[2] = Example 23: DMEM-2.5% FCS, 10 or 17 days of culture
[3] = Example 9: DMEM-10% FCS, in presence and in absence of HGF 400 ng/ml

c-Met, sequence (P08581 25-307 limits assumed): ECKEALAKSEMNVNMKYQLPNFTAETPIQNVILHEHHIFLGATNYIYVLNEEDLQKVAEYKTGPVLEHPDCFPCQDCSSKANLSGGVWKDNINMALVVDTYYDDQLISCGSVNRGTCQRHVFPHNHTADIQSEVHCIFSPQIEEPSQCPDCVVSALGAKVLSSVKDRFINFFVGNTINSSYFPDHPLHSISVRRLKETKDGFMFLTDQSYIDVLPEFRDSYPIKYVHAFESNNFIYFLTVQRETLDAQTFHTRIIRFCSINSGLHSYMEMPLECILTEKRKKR
c-Met, sequence (P08581 308-932 limits assumed): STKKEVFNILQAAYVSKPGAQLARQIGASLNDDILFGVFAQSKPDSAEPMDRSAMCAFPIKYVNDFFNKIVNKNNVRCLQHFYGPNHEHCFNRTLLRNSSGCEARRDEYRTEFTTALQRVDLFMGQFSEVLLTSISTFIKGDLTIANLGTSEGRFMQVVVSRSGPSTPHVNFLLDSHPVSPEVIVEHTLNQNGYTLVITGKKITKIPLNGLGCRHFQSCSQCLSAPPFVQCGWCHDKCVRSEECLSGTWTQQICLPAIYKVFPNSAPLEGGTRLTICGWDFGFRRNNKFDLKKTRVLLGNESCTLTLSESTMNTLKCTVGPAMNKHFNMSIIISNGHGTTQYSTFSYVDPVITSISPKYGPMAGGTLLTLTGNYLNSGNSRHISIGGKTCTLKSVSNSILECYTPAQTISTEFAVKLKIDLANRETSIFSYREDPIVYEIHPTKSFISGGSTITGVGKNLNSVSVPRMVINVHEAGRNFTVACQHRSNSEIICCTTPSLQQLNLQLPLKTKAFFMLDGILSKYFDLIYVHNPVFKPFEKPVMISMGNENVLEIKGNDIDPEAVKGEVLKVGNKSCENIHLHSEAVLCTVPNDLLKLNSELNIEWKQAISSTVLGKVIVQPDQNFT

| Molecule | inhibition of dimerization (c-Met) [%] | effect on spheroid growth [1, 2] | agonist effect on invasion, added alone (A549 cells) | effect on spheroid growth [1, 3] |
| --- | --- | --- | --- | --- |
| B1 | 32 | markedly inhibited | No agonist effect |  |
| B2 | 69 | markedly inhibited | No agonist effect | reduced significantly |
| B3 | 55 |  | No agonist effect | reduced significantly |
